This is an account of results in article PMC7159904.

The experiment concerns the target Dispatched-yellow fluorescent protein (YFP) (D. melanogaster) (UniProt Q9VNJ5). The experiment in a line: MST.

By Kd is commonly meant the concentration at which binding is half-saturated.

UniProt Q9VNJ5, sequence (Q9VNJ5 whole entry): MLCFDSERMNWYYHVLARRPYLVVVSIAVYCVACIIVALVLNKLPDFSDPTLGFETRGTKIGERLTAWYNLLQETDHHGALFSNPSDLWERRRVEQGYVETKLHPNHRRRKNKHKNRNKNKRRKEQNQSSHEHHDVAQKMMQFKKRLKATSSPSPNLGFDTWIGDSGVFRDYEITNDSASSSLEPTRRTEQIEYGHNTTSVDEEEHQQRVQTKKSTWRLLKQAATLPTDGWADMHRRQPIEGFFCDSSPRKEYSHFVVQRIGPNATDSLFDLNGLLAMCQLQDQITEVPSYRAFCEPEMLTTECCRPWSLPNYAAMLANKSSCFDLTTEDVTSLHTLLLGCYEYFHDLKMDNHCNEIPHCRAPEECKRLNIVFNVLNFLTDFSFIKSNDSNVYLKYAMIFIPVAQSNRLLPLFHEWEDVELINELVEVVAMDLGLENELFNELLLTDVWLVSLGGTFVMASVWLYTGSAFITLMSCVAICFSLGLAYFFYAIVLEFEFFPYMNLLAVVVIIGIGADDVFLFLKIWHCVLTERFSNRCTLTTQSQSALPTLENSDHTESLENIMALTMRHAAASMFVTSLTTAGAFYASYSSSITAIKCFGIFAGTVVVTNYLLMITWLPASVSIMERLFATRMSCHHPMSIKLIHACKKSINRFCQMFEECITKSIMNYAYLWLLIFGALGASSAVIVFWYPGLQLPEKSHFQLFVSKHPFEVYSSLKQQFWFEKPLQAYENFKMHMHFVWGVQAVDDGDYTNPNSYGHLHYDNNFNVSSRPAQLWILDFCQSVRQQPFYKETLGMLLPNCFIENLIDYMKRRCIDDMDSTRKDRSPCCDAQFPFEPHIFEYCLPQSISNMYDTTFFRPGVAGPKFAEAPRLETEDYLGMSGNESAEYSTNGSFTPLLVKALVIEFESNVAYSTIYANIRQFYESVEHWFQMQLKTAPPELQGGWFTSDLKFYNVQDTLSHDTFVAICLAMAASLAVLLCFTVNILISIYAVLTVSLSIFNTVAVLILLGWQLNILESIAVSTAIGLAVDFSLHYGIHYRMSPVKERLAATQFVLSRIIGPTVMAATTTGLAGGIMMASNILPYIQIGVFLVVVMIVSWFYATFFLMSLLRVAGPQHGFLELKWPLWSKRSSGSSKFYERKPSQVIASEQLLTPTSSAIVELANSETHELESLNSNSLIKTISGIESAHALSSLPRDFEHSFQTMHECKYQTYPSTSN

In turn, “modified D. melanogaster hedgehog N-terminal fragment HhN_(C85II) (from UniProt Q02936 85-257) (ligand)” registered a Kd of 6.2 µM.
